Paper PMC3355305, “Localized Dimerization and Nucleoid Binding Drive Gradient Formation by the Bacterial Cell Division Inhibitor MipZ” (Molecular Cell, 2012)

Tested on: MipZ dimer
Assay: Concentration dependence of the MipZ ATPase activity
Type: biochemical, Caulobacter crescentus
Description: Figure 2 Biochemical Analysis of MipZ Dimerization (A) ATPase cycle of MipZ. See the main text for details. (B and C) SPR analysis of MipZ self-association. MipZ or its mutant derivatives (3500 RU) were immobilized on a sensor chip and tested for homotypic interaction with the respective soluble protein (0.5 μM) in the presence of ADP (B) or ATP (C). After the binding phase, the chip was washed with buffer lacking protein and nucleotides to follow the dissociation reaction. The rate constants (koff) determined for the dissociation of the MipZ and MipZ-D42A complexes are 0.83 min^−1 and 0.067 min^−1, respectively. (D) Nucleotide-dependent dimerization of MipZ. MipZ-D42A was incubated with ADP (blue), ATP (orange) or ATPγS (red) and subjected to size exclusion chromatography. (E) ATPase activity of MipZ and its mutant derivatives. The graph gives the average turnover rate (kapp, average turnovers/min per molecule of MipZ) of the different MipZ derivatives (6 μM). Data represent the average of at least three independent experiments (±SD). Note that consistent with a critical role of the metal cofactor in dimerization and catalysis Mg^2+ was required for ATP turnover (Figure S2H). (F) Concentration dependence of the MipZ ATPase activity. The average turnover rate of MipZ (kapp) was determined at the indicated protein concentrations. Fitting of the data to a model that relates kapp to the relative abundance of dimers at the indicated MipZ concentrations (see the Experimental Procedures) yielded values of 8.0 μM (±1.2 μM) for the apparent equilibrium dissociation constant (K) of the MipZ dimer and 0.67 min^−1 (±0.03 min^−1) for the turnover number (kcat) of MipZ molecules in the dimeric state. The rate of dimer formation (kon ∼ kcat/K) derived from these values is 1.4 × 10^3 M^−1 s^−1. Data represent the mean of two independent experiments. See also Figure S2. TEXT PRINTED IN THE PICTURE: (F) MipZ: K = 8.0 μM; kcat = 0.67 min^-1 […]
According to the law of mass action, MipZ exists as a mixture of monomers (assumed to be largely in the ATP-bound state) and dimers, the equilibrium ratio of which depends on the total concentration of MipZ molecules in the reaction. […] Its average turnover rate (kapp) increased with rising protein concentrations and finally approached a plateau that likely reflects a situation in which all MipZ molecules have transitioned to the active, dimeric state. […]
β-galactosidase, MipZ, and FtsZ activity assays are detailed in the Supplemental Experimental Procedures. […]
obtained from crystals flash frozen in a solution of 95% 2 mM, sa mp le s were taken and analyzed for the amount ethanol/50 mM Tris (pH 8.5), and collected at ID23-2, of [α-32P]-GDP produced in the reaction as described ESRF (Grenoble, France). […]

B1: MipZ: P loop ATPase and cell division inhibitor of Caulobacter crescentus; hexahistidine-tagged in vitro, YFP fusion in FRAP (protein)
chain: MAETRVIVVGNEKGGAGKSTIAVHLVTALLYGGAKVAVIDLDLRQRTSARFFENRRAWLDNKKIELPEPLALNLSDNDVALAERPEEEQVAGFEAAFARAMAECDFILIDTPGGDSAITRMAHGRADLVVTPMNDSFVDFDMLGTVDPVTLELTKPSLYSLTVWEGRKQRALSGQRQAMDWVVLRNRLATTEARNRKRLEDRLNALAKRVGFRIGPGLRDRVIYRELFPFGLTIADLSPQVRPVPVSLQHLAARQELRALMHSLGLSAYSGETMLAAQ
modifications: left off: His6, end not stated, state not stated
notes: hexahistidine-tagged in vitro, YFP fusion in FRAP
turnover number (kcat) of MipZ molecules in the dimeric state (ATP hydrolysis, fit of kapp vs MipZ concentration): 0.0112 s⁻¹
rate of dimer formation (kon ∼ kcat/K) (derived from K and kcat): 1400 M⁻¹ s⁻¹
Kd (fit of kapp vs MipZ concentration, 2 mM ATP, read-out: apparent equilibrium dissociation constant (K) of the MipZ dimer): 8 µM
lifetime of the sandwich dimer (τ ∼ 1/kcat) (hydrolysis-driven dissociation): ~90 s
